From the DeepSol protein solubility set

Assay: soluble on expression in E. coli; label from the status in PepcDB or PDB records

Row | Sequence | soluble on expression in E. coli
1 | MVGLSTGSWVKVLTSMPNLESITVVELNPAYVQLASSYPAMADLLKDNRVNIITDDGRRWLNKNPDQKFDLILMNTTFHWRNYATNLLSQQFLTVTKQHLTDNGFIYFNTTDALDAYKTSQAVFPHVYAYENMSLASLKPIAVPTTPEVHRALANLKWHDGRHIFNSPAEIAEGTARIVNTPLIPYKDIDFSPLKRPAKIITDTNMITEYKYGRLNTVINK | not soluble
2 | QLSAGCGELSPQIGGGWLWSSMHRSGRYGTQQQRAGSKTAGPPCQWSRMASEGTNIPSPVVRQIDKQFLICSICLERYKNPKVLPCLHTFCERCLQNYIPAHSLTLSCPVCRQTSILPEKGVAALQNNFFITNLMDVLQRTPGSNAEESSILETVTAVAAGKPLSCPNHDGNVMEFYCQSCETAMCRECTEGEHAEHPTVPLKDVVEQHKASLQVQLDAVNKRLPEIDSALQFISEIIHQLTNQKASIVDDIHSTFDELQKTLNVRKSVLLMELEVNYGLKHKVLQSQLDTLLQGQESIKSCSNFTAQALNHGTETEVLLVKKQMSEKLNELADQDFPLHPRENDQLDFIVETEGLKKSIHNLGTILTTNAVASETVATGEGLRQTIIGQPMSVTITTKDKDGELCKTGNAYLTAELSTPDGSVADGEILDNKNGTYEFLYTVQKEGDFTLSLRLYDQHIRGSPFKLKVIRSADVSPTTEGVKRRVKSPGSGHVKQKAVKRPASMYSTGKRKENPIEDDLIFRVGTKGRNKGEFTNLQGVAASTNGKILIADSNNQCVQIFSNDGQFKSRFGIRGRSPGQLQRPTGVAVHPSGDIIIADYDNKWVSIFSSDGKFKTKIGSGKLMGPKGVSVDRNGHIIVVDNKACCVFIFQPNGKIVTRFGSRGNGDRQFAGPHFAAVNSNNEIIITDFHNHSVKVFNQEGEFMLKFGSNGEGNGQFNAPTGVAVDSNGNIIVADWGNSRIQVFDGSGSFLSYINTSADPLYGPQGLALTSDGHVVVADSGNHCFKVYRYLQ | soluble
3 | MSLGILRQAHWRNPSLERSPALILAHGCFEDVHGKVAHGLVRGTDRFDIVAVIDPDCAGHDAGTLLDGRPRNIPVFASIEAALAQGRRRPAVAIVGMATHGGRFTETLRAALFEAAAAGLSLVNGLHDLAGDDPEIAAETARHGASILDLRRPRAVAELHFWTGQIHGVAAPRIAVLGTDCALGKRTTARLLTQALNADGIRTEMIYTGQTGWMQGGRYGFILDALPNDFVSGELEHAILTCYREVRPDLIILEGQSALRNPSGPCGAELLLSGAAAGVILQHAPGRRHYDGFEGSRFRIPPVEDEIRLIEHYGVPVLGVSLNGRDSGPEGLREAQRRLARTLDVPVVCPLEDGVTDLLPPLRALLEREEVAEGHHHHHH | soluble
4 | PTRQVLQGSRCRLEPLTLAHASDLFAAHQLAPDARSWTWLLREPESNLAEFSAWVEQVATLADPIHFAVVDQQRGKAVGSLALMRIDIAHGVVEVGHVHFSPLLSRTAMATEAHWLLMQYVFDTLGYRRYEWKCNSLNIPSARAARRLGFQYEGRFRQALVSKGHNRDTDWFSVIDGEWPELDNAMRQWLAADNFTA | not soluble
5 | MLWGRREFVMREEDTVCVGSDGLQYCKVCGEAKEAFFPEGGFMGMKKHSRQCACDRKAYEEEQKYFKDKEHRELVSRNTSICFDESRMEEWTFENADMSDAVMHKAKSYVDNWEEMKRNHIGCLFWGPVGTGKSFIAGCIANELLKQEVTVKMTNFNTIIDDIFPLADKTEYINALASYQLLIIDDLGVERNSEYALGIIFSVIDRRIRSGRPLIITTNLPLNEIKSETMLDKRRIYDRILEMCTPMYVGGASKREAIASMKMEKAKTLLNTNKGEE | not soluble
6 | MADLRLEREFAVAPEALFAWVSDGAKLLQWWGPEGLHVPADQHDLDFTRLGPWFSVMVNGEGQRYKVSGQVTHVKPPQSVGFTWGWHDDDDRRGAESHVMFIVEPCAKGARLILDHRELGDDEMSLRHEEGWTSSLRKLAAELALEHHHHHH | soluble
7 | SLDITFIDETEKVPTEEIKEIENLLQFAAGFLEIAEDTEMSVTFTDNAGIQMINRDYRGKDMPTDVISFALEDEGEDELPIIFDDEELAELPRNLGDLIISTERAAEQAVEYGHTLEREMGFLAVHGFLHLNGYDHMEPEDEKEMFGLQKEILDAYGLKR | soluble
8 | MIKNILILSSNNTGHGHKSITESLLEQFSHYPDVNVHVIDGFTLAGNFGLRIGKLYGSVTRNAKELWKLVWELSLKKPSLLNDFTEVAIKDNFLKLICNIKPDLILSVHPNFNGSVLNILEDYNIKVPFVTLLADIVSITPLWADPRADYIICPSKESKFKCLEFGVSESKLIETGFPVRQKFLKLEHHHHHH | not soluble
9 | MRFTKTLFTTALFGASVFSFQSTAWADTLEQQFQQGSEATTRGDYQTTFKFLLPLAEQGNALAQMMLGVMYAKGQGVKQDDVEAVKWYRKAAEQGYADAQAMLGFSYLLGQSGVQVNKSLAKEWFGKACDNGDQNGCEYYGKLNRGEL | not soluble
10 | MAHHHHHHMQSALRSFSEAAVGLGTSQEKLAAFIAFTNQEKLRVPQLALLRELRRQLVAEEAIAERGRHHQQPDYGVSKRSSNASAAYQDSGDQNAHLSDLRKVNVLCSSKTEKSLQCSKTLSLNHQRGDSTTGAHKTRFQSPRFSSLKSVPFAQAGAANDEYDEDIRGFGARDFAPTPTPSGKLPYKPRDVCLLNSSYFANRSIRSDGSNPCGAPLPTSSPGTPSPSWRGAMTATAFAKLPAPSQQPLLAVDSSLGTVIDVDSEFSLVREAEDTAESRFAPKQDLSIVSMNSSQLELLNIAELAASSSEAALAQPPAAAVLTGIREKVADGSLSKHTVTLFHESNEKRSRGVAASTAAEVAVASVTASIAERKPAPSSQPSTQRGLCGYTNPGNFASLLVPNVLARPVSPPAERTVAPFSLRVAPASTSPSDKEKAVTLEQQEGMASTTAVTIGSTDSAGPAAASVASRLPSPPLITQAEENDGFVYYCANPSHSVIDSYAGRRKLLAVTVKL | not soluble
11 | GMDAGRGAEHDEAVTSDDSASVEVPRRATPADAATVAQMLHDFNTEFGAPTPGTDELASRLSHLLAGEDVVVLLAGEPPTGLAVLSFRPNVWYPGPVAILDELYVRPGRRGHRLGSALLAASCGLVRSRGGALLEINVDGEDTDARRFYEARGFTNTEPNGTEPMLYYYREL | soluble
12 | MSLVKLKNLTLYLWAVFVVGCTSVPEVSTQAQNPANNKTVSLAELNWQELSLPADINFEFNEKSQVLLDNNSTGPVASFVIPTDRGPVDMVLTSHVGKELTLYEPNVLVTNSKGGVFYHIKSNEFKYIPARLLDGDRVQKQFTIVPQIGADQVNVLIYTTSEDLKGSTTVIHPAKAFAIGTGTQPPMIPDLTAVHSEYGQLNLTVTAVSLTNRTPIRPAIDYVPEIEAKSAYYLNSIQNSVEQGDIDHAMTLVSEAEKLGIPSARATFINAVQSRNEHKEGHHHHHH | soluble
13 | MGQLVDGVWHDTWYETKSTGGHFKRSESAFRNWVTPDGAPGLTGKGGFPAQSGRYHLYVSLACPWAHRTLLMRQLKGLEDHIAVSVVHPLMLDHGWTFGTDFEAATGDSLYQHEFLYQLYLHAKPDYSGRVTVPVLWDTEQHTVVSNESADIIRMLNSAFDGVGAIAGDYYPEALRTQIDELNSWIYDKVNNGVYKAGFATTQSAYDESASTVFAALSDLETILAKQRYLTGEQLTEADLRLWTTLIRFDPVYHTHFKCDKYRLSDYPNLFGFLRDIYQMPGIAETVDMAHIRHHYYRSHGLEHHHHHH | not soluble
14 | VFQSILDEIDVGLHVVDEHGNTIVYNNKMMQIEDMEKHDVLNKNLMDVFMFSKQQDSTLVQALQEGKTIKNVKQSYFNNKGQEITTINHTYPIVQDGKIRGAVEIAKDVT | not soluble
15 | SKVWKYFGFDTNAEGCILQWKKIYCRICMAQIAYSGNTSNLSYHLEKNHPEEFCEFVKSN | soluble
16 | MQNVLIVGVGFMGGSFAKSLRRSGFKGKIYGYDINPESISKAVDLGIIDEGTTSIAKVEDFSPDFVMLSSPVRTFREIAKKLSYILSEDATVTDQGSVKGKLVYDLENILGKRFVGGHPIAGTEKSGVEYSLDNLYEGKKVILTPTKKTDKKRLKLVKRVWEDVGGVVEYMSPELHDYVFGVVSHLPHAVAFALVDTLIHMSTPEVDLFKYPGGGFKDFTRIAKSDPIMWRDIFLENKENVMKAIEGFEKSLNHLKELIVREAEEELVEYLKEVKIKRMEI | soluble
17 | MGHHHHHHSHMQYMYFKAEPYAADEGSGEGHKWLMVHVDKRITLAAFKQHLEPFVGVLSSHFKVFRVYASNQEFESVRLNETLSSFSDDNKITIRLGRALKKGEYRVKVYQLLVNEQEPCKFLLDAVFAKGMTVRQSKGELIPQLREQCGLELSIDRFRLRKKTWKNPGTVFLDYHIYEEDINISSNWEVFLEVLDGVEKMKSMSQLAVLSRRWKPSEMKLDPFQEVVLESSSVDELREKLSEISGIPLDDIEFAKGRGTFPCDISVLDIHQDLDWNPKVSTLNVWPLYICDDGGVIFYRDKTEELMELTDEQRNELMKKESSRLQKTGHRVTYSPRKEKALKIYLDGAPNKDLTQD | not soluble
18 | GMDTPANKPCIICVAITGSVPTKADNPAVPITVSEQVESTQEAFEAGAAIAHCHVRNDDGTPSSDPDRFARLTEGLHTHCPGMIVQFSTGGRSGAGQARGGMLPLKPDMASLSVGSNNFPSRVYENPPDLVDWLAAQMRSYRVTPEIEAFDLSHILRAIDMHGRGLLYGKLYVQFVMGVKNAMPADREVFDFYVRMMRTRAPQAEWCAAGIGANQLTVNEWAIAAGGHTRTGLEDNIRLDRQTLAPSNAALVRRSVELCDKYQRPVASWQQAREILGLPAAARN | soluble
19 | MSNWPYPHIVAHRGGGKLAPENTLAAIDVGARYGHTMIEFDAKLSKDGEIFLLHDDNLERTSNGWGVAGELNWQDLLRVDAGGWFSGEFKGEPLPLLSQVAERCRKHGMMANIEIKPTTGSGRLTGRVVALAARELWAGMTPPLLSSFEIEALEAAQAAAPELPRGLLLDKWREDWRELTTRLGCVSLHLNHKLLDETRVQEIKAAGLRILVYTVNQPQRAAELLRWGVDCICTDRIDDIGPHFQF | not soluble
20 | MAHHHHHHMDYYRLLADIGHTYLQLIPSTAHVEKVTGLAARYCIFTITHTQMLLHCLMLWKEARLGDGGGFIDYAKVRNLKICSGAAEHTAQSNADAHSSNEGKQKWRTIDRTASLLFTLQLLEANCRYYCLVFLANYCALLLRSYSCLTDQRKVNRVHANVVEHLDMVSRLVLDLAEEYPNEYLSRLIMANLPKPSNFDRECLSSMGASSHMGSQKILSFGNDQHRHLYASGYPWSPTQSALIPLILARTVRLTVQENVSRHSQAQLRSPAERLSYHYTRWHFNSGLVIVPGCSLYMLKKSLPGFVPGKSTFAHYATMAEHEELHVPRAAADVHWQRGSAAVPVPEDGGGAAPGSHRNPRKSEDSADAEKREALTKKCEERLIKKRRHINTDLHLSDERTCVALCLEEACALALPSLLLSCVLQKATREPHFREFMNNAMNLVLGLYGPASSEWHMMASFLRKHLEG | not soluble
21 | MGSDKIHHHHHHMKRVISLIDMDCFYAQVEQRDNPSLWGQPVIVVQHSRQGIEGGILAVSYEARPFGVKRGMTVAEAKLKCPQISICHVPIGEYVDKADIQKYRDASAEVFRVLNNYDSQIIIEKASVDEAFLDLSAYTNQKLQELRENEGLEEFLQAAITYLPTTHLATGEDVKENEHLREDVLLEYIENARNCTENLLLLIAAVTVEQIRQQIHEETQFFCSAGVGNNKMMAKLVCARHKPRQQTLIPWFYVREILRLTPIGDVRGFGGKMGNRIQEMLNITVRKRKYSKFQVIFRIFIEKLSEMSEICNFRRFYTIFKYFSLNLEIWKYSKKNQFFLAKKKEILRFSQLKIRKFEFPVTFYPRNPLMGELLEVDISQLIE | not soluble
